Measurements: publication PMC2193694 (The Journal of Experimental Medicine, 2002)

T1: B7-H2mIg (extracellular domain of human B7-H2 linked to mouse IgG2a Fc portion) (human, UniProt O75144 19-256)
T1 sequence: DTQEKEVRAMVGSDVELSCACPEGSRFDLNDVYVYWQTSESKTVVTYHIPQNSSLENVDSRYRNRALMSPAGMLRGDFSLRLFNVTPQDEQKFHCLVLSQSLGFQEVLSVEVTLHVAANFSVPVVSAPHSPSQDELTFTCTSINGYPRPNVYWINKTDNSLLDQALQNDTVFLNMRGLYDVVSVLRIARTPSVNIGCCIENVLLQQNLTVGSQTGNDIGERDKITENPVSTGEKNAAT

B1: ICOSIg (extracellular domain of human ICOS fused to the CH2-CH3 portion of human IgG1) (Fc fusion)
chain: EINGSANYEMFIFHNGGVQILCKYPDIVQQFKMQLLKGGQILCDLTKTKGSGNTVSIKSLKFCHSQLSNNSVSFFLYNLDHSHANYYFCNLSIFDPPPFKVTLTGGYLHIYESQLCCQLK
B2: ICOSIg mutant D115S (Fc fusion)
chain: EINGSANYEMFIFHNGGVQILCKYPDIVQQFKMQLLKGGQILCDLTKTKGSGNTVSIKSLKFCHSQLSNNSVSFFLYNLDHSHANYYFCNLSIFSPPPFKVTLTGGYLHIYESQLCCQLK
B3: ICOSIg mutant F119S (Fc fusion)
chain: EINGSANYEMFIFHNGGVQILCKYPDIVQQFKMQLLKGGQILCDLTKTKGSGNTVSIKSLKFCHSQLSNNSVSFFLYNLDHSHANYYFCNLSIFDPPPSKVTLTGGYLHIYESQLCCQLK
B4: ICOSIg mutant F51S (Fc fusion)
chain: EINGSANYEMFIFHNGGVQILCKYPDIVQQSKMQLLKGGQILCDLTKTKGSGNTVSIKSLKFCHSQLSNNSVSFFLYNLDHSHANYYFCNLSIFDPPPFKVTLTGGYLHIYESQLCCQLK
B5: ICOSIg mutant D64S (Fc fusion)
chain: EINGSANYEMFIFHNGGVQILCKYPDIVQQFKMQLLKGGQILCSLTKTKGSGNTVSIKSLKFCHSQLSNNSVSFFLYNLDHSHANYYFCNLSIFDPPPFKVTLTGGYLHIYESQLCCQLK
B6: ICOSIg mutant Q49S (Fc fusion)
chain: EINGSANYEMFIFHNGGVQILCKYPDIVSQFKMQLLKGGQILCDLTKTKGSGNTVSIKSLKFCHSQLSNNSVSFFLYNLDHSHANYYFCNLSIFDPPPFKVTLTGGYLHIYESQLCCQLK
B7: ICOSIg mutant K67S (Fc fusion)
chain: EINGSANYEMFIFHNGGVQILCKYPDIVQQFKMQLLKGGQILCDLTSTKGSGNTVSIKSLKFCHSQLSNNSVSFFLYNLDHSHANYYFCNLSIFDPPPFKVTLTGGYLHIYESQLCCQLK
B8: ICOSIg mutant F114S (Fc fusion)
chain: EINGSANYEMFIFHNGGVQILCKYPDIVQQFKMQLLKGGQILCDLTKTKGSGNTVSIKSLKFCHSQLSNNSVSFFLYNLDHSHANYYFCNLSISDPPPFKVTLTGGYLHIYESQLCCQLK
B9: ICOSIg mutant Q50S (Fc fusion)
chain: EINGSANYEMFIFHNGGVQILCKYPDIVQSFKMQLLKGGQILCDLTKTKGSGNTVSIKSLKFCHSQLSNNSVSFFLYNLDHSHANYYFCNLSIFDPPPFKVTLTGGYLHIYESQLCCQLK
B10: ICOSIg mutant K69S (Fc fusion)
chain: EINGSANYEMFIFHNGGVQILCKYPDIVQQFKMQLLKGGQILCDLTKTSGSGNTVSIKSLKFCHSQLSNNSVSFFLYNLDHSHANYYFCNLSIFDPPPFKVTLTGGYLHIYESQLCCQLK
B11: ICOSIg homologue replacement mutant RP49-52 (ICOS 49-52 replaced by CD28 49-52) (Fc fusion)
chain: EINGSANYEMFIFHNGGVQILCKYPDIVREFRMQLLKGGQILCDLTKTKGSGNTVSIKSLKFCHSQLSNNSVSFFLYNLDHSHANYYFCNLSIFDPPPFKVTLTGGYLHIYESQLCCQLK

target: T1, B7-H2mIg (extracellular domain of human …); test: ELISA

| Molecule | percentage of B7-H2 binding activity (of ICOSIg) [%] |
| --- | --- |
| B1 | 100 |
| B2 | < 0.1 |
| B3 | < 0.1 |
| B4 | < 0.1 |
| B5 | 6 |
| B6 | 33 |
| B7 | < 0.1 |
| B8 | < 0.1 |
| B9 | 6 |
| B10 | 3 |
| B11 | 9 |

target: B7-H2mIg (extracellular domain of human B7-H2 linked to mouse IgG2a Fc portion) (human) (UniProt O75144); test: ELISA

| Molecule | percentage of B7-H2 binding activity (of ICOSIg) [%] |
| --- | --- |
| ICOSIg mutant P117S (from UniProt Q9Y6W8 21-140) (Fc fusion) | < 0.1 |
